# Experimental data: IntAct's records for PubMed 9389648
# B1: Mothers against decapentaplegic homolog 2 (Homo sapiens), Q15796 (parent)
# chain: MSSILPFTPPVVKRLLGWKKSAGGSGGAGGGEQNGQEEKWCEKAVKSLVKKLKKTGRLDELEKAITTQNCNTKCVTIPSTCSEIWGLSTPNTIDQWDTTGLYSFSEQTRSLDGRLQVSHRKGLPHVIYCRLWRWPDLHSHHELKAIENCEYAFNLKKDEVCVNPYHYQRVETPVLPPVLVPRHTEILTELPPLDDYTHSIPENTNFPAGIEPQSNYIPETPPPGYISEDGETSDQQLNQSMDTGSPAELSPTTLSPVNHSLDLQPVTYSEPAFWCSIAYYELNQRVGETFHASQPSLTVDGFTDPSNSERFCLGLLSNVNRNATVEMTRRHIGRGVRLYYIGGEVFAECLSDSAIFVQSPNCNQRYGWHPATVCKIPPGCNLKIFNNQEFAALLAQSVNQGFEAVYQLTRMCTIRMSFVKGWGAEYRRQTVTSTPCWIELHLNGPLQWLDKVLTQMGSPSVRCSSMS
# partner: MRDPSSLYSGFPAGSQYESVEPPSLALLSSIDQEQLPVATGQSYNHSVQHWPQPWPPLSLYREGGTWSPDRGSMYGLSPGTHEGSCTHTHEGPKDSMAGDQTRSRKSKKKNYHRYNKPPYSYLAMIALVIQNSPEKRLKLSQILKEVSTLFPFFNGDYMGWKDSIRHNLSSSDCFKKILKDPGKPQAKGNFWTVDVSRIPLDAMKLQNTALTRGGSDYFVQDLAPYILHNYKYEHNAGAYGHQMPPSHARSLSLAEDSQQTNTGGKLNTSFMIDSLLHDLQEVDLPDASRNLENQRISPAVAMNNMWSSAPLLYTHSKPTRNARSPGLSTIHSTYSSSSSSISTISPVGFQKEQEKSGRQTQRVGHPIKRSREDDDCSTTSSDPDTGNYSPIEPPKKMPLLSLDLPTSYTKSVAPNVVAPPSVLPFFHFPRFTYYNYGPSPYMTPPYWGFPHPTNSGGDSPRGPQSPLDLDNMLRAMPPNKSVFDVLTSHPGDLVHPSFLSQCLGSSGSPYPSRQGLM
# Variants of: B1
# Settings: with foxh1_xenla foxh1, P70056
row,Variant,effect of a mutation on the interaction
1,D450E,disrupting interaction
2,S464A;S465A;S467A,disrupting interaction
